In patent publication US12522842B2, “Glutamine synthetase mutant having glufosinate resistance and application thereof and cultivation method therefor” (GEVOTO LLC, priority 2019, dated 2026):

Test system: glutamine synthetase-deficient Escherichia coli
Test: Growth of glutamine synthetase-deficient E. coli transformed with GS mutants in M9 medium containing glufosinate
Assay type: cell-based
Settings: for growth of transformed GS-deficient E. coli (normal GS enzymatic activity): medium containing 0 mM glufosinate
Excerpt: According to the sequences of the nucleic acid molecules provided in Example 4, the nucleic acid sequences encoding rice GS mutants OsA, OsC, OsD, OsE, OsF, OsG, OsH, OsI, OsK, OsP, OST, OsV, and OsY were synthesized using chemical synthesis method. Restriction digestion sites (Pac1 and Sbf1) were introduced at both ends thereof, and after restriction digestion, they were linked under the action of ligase to an expression vector (such as pADV7 vector, whose structure is shown in FIG. 4) that was subjected to the same restriction digestion treatment. Then, glutamine synthetase-deficient Escherichia coli was transformed with the resultant. After verification, positive clones were picked up and inoculated in M9 medium containing different concentrations of glufosinate to grow, and the growth status of defective Escherichia coli was observed.
With wild-type rice GS (its amino acid sequence shown in SEQ ID NO. 1 and its encoding gene shown in SEQ ID NO. 4) as a negative control, the glufosinate resistance for the GS mutant OsA (S59A, wherein the amino acid S at site 59 of the rice GS is mutated into A), OsC (S59C), OsD (S59D), OsE (S59E), OsF (S59F), OsG (S59G), OsH (S59H), OsI (S591), OsK (S59K), OsP (S59P), OsT (S59T), OsV (S59V), OsY (S59Y) was detected.
With reference to the detection method of Experimental Example 1, glufosinate resistance of the rice GS mutant OsGR (S59G and H296R, the amino acid S at site 59 of rice GS is mutated into G and the amino acid H at site 296 is mutated into R), the wheat GS mutant TaGR (S59G and H296R, the amino acid S at site 59 of wheat GS is mutated into G and the amino acid H at site 296 is mutated into R), the soybean GS mutant GmGR (S59G and H296R, the amino acid S at site 59 of soybean GS is mutated into G and the amino acid H at site 296 is mutated into R) provided in Example 2 was verified.
With reference to Experimental example 1, the glufosinate resistance of rice GS mutants OA, OD, OE, OG, OI, OK, OM, OP, OQ, OR, OS, OT, and OV provided in Example 3 was detected according to the following method.
With wild-type rice GS as a negative control, the glufosinate resistance of GS mutants OA (H296A, amino acid H at site 296 of rice GS is mutated into A), OD (H296D), OE (H296E), OG (H296G), OI (H2961), OK (H296K), OM (H296M), OP (H296P), OQ (H296Q), OR (H296R), OS (H296S), OT (H296T), OV (H296V) was detected.

[1] = medium containing 10 mM glufosinate
[2] = medium with 50 mM/100 mM glufosinate

Molecule | growth of transformed GS-deficient E. coli (normal GS enzymatic activity) | growth of transformed E. coli (glufosinate resistance) [1] | growth of transformed E. coli (glufosinate resistance) [2]
OsK (protein, OsK) MASLTDLVNLNLSDTTEKIIAEYIWIGGSGMDLRSKARTLSGPVTDPSKLPKWNYDGSKTGQAPGEDSEVILYPQAIFKDPFRKGNNILVMCDCYTPAGEPIPTNKRHNAAKIFSSPEVASEEPWYGIEQEYTLLQKDINWPLGWPVGGFPGPQGPYYCGIGADKSFGRDIVDSHYKACLYAGINISGINGEVMPGQWEFQVGPSVGISAGDQVWVARYILERITEIAGVVVSFDPKPIPGDWNGAGAHTNYSTKSMRNDGGYEIIKSAIEKLKLRHKEHISAYGEGNERRLTGRHETADINTFSWGVANRGASVRVGRETEQNGKGYFEDRRPASNMDPYIVTSMIAETTIIWKP | could normally grow | significantly superior to that of the negative control | significantly grew
OsP (protein, OsP) MASLTDLVNLNLSDTTEKIIAEYIWIGGSGMDLRSKARTLSGPVTDPSKLPKWNYDGSPTGQAPGEDSEVILYPQAIFKDPFRKGNNILVMCDCYTPAGEPIPTNKRHNAAKIFSSPEVASEEPWYGIEQEYTLLQKDINWPLGWPVGGFPGPQGPYYCGIGADKSFGRDIVDSHYKACLYAGINISGINGEVMPGQWEFQVGPSVGISAGDQVWVARYILERITEIAGVVVSFDPKPIPGDWNGAGAHTNYSTKSMRNDGGYEIIKSAIEKLKLRHKEHISAYGEGNERRLTGRHETADINTFSWGVANRGASVRVGRETEQNGKGYFEDRRPASNMDPYIVTSMIAETTIIWKP | could normally grow | significantly superior to that of the negative control | significantly grew
OsE (protein, OsE) MASLTDLVNLNLSDTTEKIIAEYIWIGGSGMDLRSKARTLSGPVTDPSKLPKWNYDGSETGQAPGEDSEVILYPQAIFKDPFRKGNNILVMCDCYTPAGEPIPTNKRHNAAKIFSSPEVASEEPWYGIEQEYTLLQKDINWPLGWPVGGFPGPQGPYYCGIGADKSFGRDIVDSHYKACLYAGINISGINGEVMPGQWEFQVGPSVGISAGDQVWVARYILERITEIAGVVVSFDPKPIPGDWNGAGAHTNYSTKSMRNDGGYEIIKSAIEKLKLRHKEHISAYGEGNERRLTGRHETADINTFSWGVANRGASVRVGRETEQNGKGYFEDRRPASNMDPYIVTSMIAETTIIWKP | could normally grow | significantly superior to that of the negative control | –
OsF (protein, OsF) MASLTDLVNLNLSDTTEKIIAEYIWIGGSGMDLRSKARTLSGPVTDPSKLPKWNYDGSFTGQAPGEDSEVILYPQAIFKDPFRKGNNILVMCDCYTPAGEPIPTNKRHNAAKIFSSPEVASEEPWYGIEQEYTLLQKDINWPLGWPVGGFPGPQGPYYCGIGADKSFGRDIVDSHYKACLYAGINISGINGEVMPGQWEFQVGPSVGISAGDQVWVARYILERITEIAGVVVSFDPKPIPGDWNGAGAHTNYSTKSMRNDGGYEIIKSAIEKLKLRHKEHISAYGEGNERRLTGRHETADINTFSWGVANRGASVRVGRETEQNGKGYFEDRRPASNMDPYIVTSMIAETTIIWKP | could normally grow | significantly superior to that of the negative control | significantly grew
OsD (protein, OsD) MASLTDLVNLNLSDTTEKIIAEYIWIGGSGMDLRSKARTLSGPVTDPSKLPKWNYDGSDTGQAPGEDSEVILYPQAIFKDPFRKGNNILVMCDCYTPAGEPIPTNKRHNAAKIFSSPEVASEEPWYGIEQEYTLLQKDINWPLGWPVGGFPGPQGPYYCGIGADKSFGRDIVDSHYKACLYAGINISGINGEVMPGQWEFQVGPSVGISAGDQVWVARYILERITEIAGVVVSFDPKPIPGDWNGAGAHTNYSTKSMRNDGGYEIIKSAIEKLKLRHKEHISAYGEGNERRLTGRHETADINTFSWGVANRGASVRVGRETEQNGKGYFEDRRPASNMDPYIVTSMIAETTIIWKP | could normally grow | significantly superior to that of the negative control | significantly grew
OsC (protein, OsC) MASLTDLVNLNLSDTTEKIIAEYIWIGGSGMDLRSKARTLSGPVTDPSKLPKWNYDGSCTGQAPGEDSEVILYPQAIFKDPFRKGNNILVMCDCYTPAGEPIPTNKRHNAAKIFSSPEVASEEPWYGIEQEYTLLQKDINWPLGWPVGGFPGPQGPYYCGIGADKSFGRDIVDSHYKACLYAGINISGINGEVMPGQWEFQVGPSVGISAGDQVWVARYILERITEIAGVVVSFDPKPIPGDWNGAGAHTNYSTKSMRNDGGYEIIKSAIEKLKLRHKEHISAYGEGNERRLTGRHETADINTFSWGVANRGASVRVGRETEQNGKGYFEDRRPASNMDPYIVTSMIAETTIIWKP | could normally grow | significantly superior to that of the negative control | significantly grew
OsA (protein, OsA) MASLTDLVNLNLSDTTEKIIAEYIWIGGSGMDLRSKARTLSGPVTDPSKLPKWNYDGSATGQAPGEDSEVILYPQAIFKDPFRKGNNILVMCDCYTPAGEPIPTNKRHNAAKIFSSPEVASEEPWYGIEQEYTLLQKDINWPLGWPVGGFPGPQGPYYCGIGADKSFGRDIVDSHYKACLYAGINISGINGEVMPGQWEFQVGPSVGISAGDQVWVARYILERITEIAGVVVSFDPKPIPGDWNGAGAHTNYSTKSMRNDGGYEIIKSAIEKLKLRHKEHISAYGEGNERRLTGRHETADINTFSWGVANRGASVRVGRETEQNGKGYFEDRRPASNMDPYIVTSMIAETTIIWKP | could normally grow | significantly superior to that of the negative control | –
OsV (protein, OsV) MASLTDLVNLNLSDTTEKIIAEYIWIGGSGMDLRSKARTLSGPVTDPSKLPKWNYDGSVTGQAPGEDSEVILYPQAIFKDPFRKGNNILVMCDCYTPAGEPIPTNKRHNAAKIFSSPEVASEEPWYGIEQEYTLLQKDINWPLGWPVGGFPGPQGPYYCGIGADKSFGRDIVDSHYKACLYAGINISGINGEVMPGQWEFQVGPSVGISAGDQVWVARYILERITEIAGVVVSFDPKPIPGDWNGAGAHTNYSTKSMRNDGGYEIIKSAIEKLKLRHKEHISAYGEGNERRLTGRHETADINTFSWGVANRGASVRVGRETEQNGKGYFEDRRPASNMDPYIVTSMIAETTIIWKP | could normally grow | significantly superior to that of the negative control | –
